Reference: patent US20140322726A1

What was measured:
[1] = molecular target: endogenous human asparagine synthetase (ASNS) in leukemia cells (human) (UniProt P08243); test: flow cytometry on fixed, permeabilised K562 cells (high ASNS), control antibody at 3 ug/ml
[2] = molecular target: endogenous human asparagine synthetase (ASNS) in leukemia cells (human) (UniProt P08243); test: flow cytometry on fixed, permeabilised MOLT-4 cells (extremely low ASNS), control antibody at 3 ug/ml
[3] = molecular target: endogenous human asparagine synthetase (ASNS) in leukemia cells (human) (UniProt P08243); test: flow cytometry with QIFIKIT calibration beads, K562 cells, control antibody at 3 ug/ml
[4] = molecular target: endogenous human asparagine synthetase (ASNS) in leukemia cells (human) (UniProt P08243); test: flow cytometry with QIFIKIT calibration beads, MOLT-4 cells, control antibody at 3 ug/ml

Chain of UniProt P08243 (P08243 2-561): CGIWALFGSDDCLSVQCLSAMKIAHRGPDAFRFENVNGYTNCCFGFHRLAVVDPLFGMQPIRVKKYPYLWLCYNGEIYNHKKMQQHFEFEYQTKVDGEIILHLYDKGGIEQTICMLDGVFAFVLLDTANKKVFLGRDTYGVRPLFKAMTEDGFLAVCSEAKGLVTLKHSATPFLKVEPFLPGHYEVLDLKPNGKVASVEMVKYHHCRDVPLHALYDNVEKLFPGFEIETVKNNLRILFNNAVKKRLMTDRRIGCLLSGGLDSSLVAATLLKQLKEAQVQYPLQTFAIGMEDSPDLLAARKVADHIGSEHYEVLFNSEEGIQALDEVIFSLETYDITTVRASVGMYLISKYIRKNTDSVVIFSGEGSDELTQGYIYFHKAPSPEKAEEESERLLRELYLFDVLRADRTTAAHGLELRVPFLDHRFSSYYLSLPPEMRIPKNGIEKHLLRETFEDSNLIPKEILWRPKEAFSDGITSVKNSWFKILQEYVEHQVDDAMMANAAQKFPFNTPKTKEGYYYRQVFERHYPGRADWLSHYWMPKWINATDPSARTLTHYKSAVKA

- MFI (arbitrary units) [1]: 4.56
- MFI (arbitrary units) [2]: 3.17
- ABC (antibody binding capacity) [3]: 874 units/cell
- ABC (antibody binding capacity) [4]: 631 units/cell
Substance: control mouse IgG (3423, 2AHB12; Institute of Immunology) (antibody)
